In patent US20050282743A1, “Molecular interactions in cells” (Arbor Vita Corporation, priority 2001, published 2005):
One block for each sequence: values may come before it. Ends that are not written are not given here. * marks the point of attachment. Biotin = O=C1N[C@H]2[C@H](CS[C@H]2CCCCC(=O)*)N1

Experiments:
Experiment in all cases: G' assay (10 uM PL peptide), results of TABLE 7 and TABLE 12
Format in all cases: binding
[1] = target: T1, PDZ protein (GST-PDZ fusion) (Homo sapiens, UniProt Q8NI35); conditions: PDZ INADL, PDZ Domain 8
T1 construct: made in house; host or cells: E. coli (DH5alpha, BL21 or JM109)
Text: (§1) Each page of TABLE 7 and 12 includes seven columns. The columns in each table are numbered from left to right such that the left-most column in each table is column 1 and the right-most column in each table is column 7. Thus, the first column in each table is labeled “AVC ID”; this column simply lists an internal reference number used to refer to the carboxyl-terminal amino acids of the PL proteins listed in the second column. […] All PL peptides were biotinylated at the amino-terminus and the sequences of these PL peptides are presented in TABLE 8 (see end of specification).
(§2) This column provides the gene name for the PDZ portion of the GST-PDZ fusion that interacts with the PDZ-ligand to the left. For PDZ domain-containing proteins with multiple domains, the domain number is listed to the right of the PDZ (i.e., in column 5 labeled “PDZ Domain”), and indicates the PDZ domain number when numbered from the amino-terminus to the carboxy-terminus.
(§3) The third column labeled “Peptide Optimal Concentration” in the tables is a number reflective of the binding interaction between the PL protein and PDZ protein. […] The column labeled “Protein Optimal Concentration” refers to the protein concentration used to assay PL interaction (in ug/ml); a ‘0’ is indicative of 5 ug/ml protein concentration; any other value represents the concentration (in ug/ml) used to determine the dissociation constant for a given interaction.
(§4) Finally, the seventh column labeled “Classification” is another measure of the level of binding. In particular, it provides an absorbance value at 450 nm which indicates the amount of PL peptide bound to the PDZ protein. The following numerical values have the following meanings: ‘1’—A450 nm 0-1; ‘2’—A450 nm 1-2; ‘3’—A450 nm 2-3; ‘4’—A450 nm 3-4; ‘5’—A450 nm of 4 more than 2× repeated; ‘0’—A450 nm 0, i.e., not found to interact. Thus, higher numbers indicate stronger interactions.
(§5) For convenience, the assay conditions described in this section are referred to as the “G′ assay” and the “G″ assay,” with the specific conditions described in the preceding section on G assays being referred to as the “G^0 assay.” The “G′ assay” is identical to the “G^0 assay” except at step (2) the peptide concentration is 10 uM instead of 20 uM.

[2] = target: T2, PDZ protein (GST-PDZ fusion) (Homo sapiens, UniProt Q02410)
T2 construct: made in house; host or cells: E. coli (DH5alpha, BL21 or JM109)
T2 sequence (Q02410 1-837): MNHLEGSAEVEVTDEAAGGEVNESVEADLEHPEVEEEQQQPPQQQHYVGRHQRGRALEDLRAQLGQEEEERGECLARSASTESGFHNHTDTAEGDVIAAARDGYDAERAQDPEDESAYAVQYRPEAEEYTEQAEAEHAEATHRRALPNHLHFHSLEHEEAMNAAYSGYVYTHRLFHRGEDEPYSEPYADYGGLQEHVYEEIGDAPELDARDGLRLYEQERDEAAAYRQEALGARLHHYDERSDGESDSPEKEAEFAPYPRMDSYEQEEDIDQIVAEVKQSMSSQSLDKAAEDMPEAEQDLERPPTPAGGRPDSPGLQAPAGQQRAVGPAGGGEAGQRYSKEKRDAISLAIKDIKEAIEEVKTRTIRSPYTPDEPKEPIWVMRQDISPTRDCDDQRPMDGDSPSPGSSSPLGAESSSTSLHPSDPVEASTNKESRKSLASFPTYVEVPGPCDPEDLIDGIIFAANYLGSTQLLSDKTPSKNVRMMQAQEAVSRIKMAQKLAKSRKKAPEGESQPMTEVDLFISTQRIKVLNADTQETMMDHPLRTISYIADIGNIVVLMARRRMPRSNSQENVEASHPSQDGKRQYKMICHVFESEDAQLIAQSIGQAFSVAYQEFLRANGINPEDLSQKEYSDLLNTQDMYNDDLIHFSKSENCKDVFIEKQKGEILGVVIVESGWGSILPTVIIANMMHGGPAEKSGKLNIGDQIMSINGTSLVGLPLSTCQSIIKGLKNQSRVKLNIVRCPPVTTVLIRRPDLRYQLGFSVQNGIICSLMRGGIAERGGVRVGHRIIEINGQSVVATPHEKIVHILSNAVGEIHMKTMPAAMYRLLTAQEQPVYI
Text: as §1, §2, §3, §4, §5

[3] = target: T3, PDZ protein (GST-PDZ fusion) (Homo sapiens, UniProt O75970)
T3 construct: made in house; host or cells: E. coli (DH5alpha, BL21 or JM109)
T3 sequence (O75970 whole entry, the tested form may be a part): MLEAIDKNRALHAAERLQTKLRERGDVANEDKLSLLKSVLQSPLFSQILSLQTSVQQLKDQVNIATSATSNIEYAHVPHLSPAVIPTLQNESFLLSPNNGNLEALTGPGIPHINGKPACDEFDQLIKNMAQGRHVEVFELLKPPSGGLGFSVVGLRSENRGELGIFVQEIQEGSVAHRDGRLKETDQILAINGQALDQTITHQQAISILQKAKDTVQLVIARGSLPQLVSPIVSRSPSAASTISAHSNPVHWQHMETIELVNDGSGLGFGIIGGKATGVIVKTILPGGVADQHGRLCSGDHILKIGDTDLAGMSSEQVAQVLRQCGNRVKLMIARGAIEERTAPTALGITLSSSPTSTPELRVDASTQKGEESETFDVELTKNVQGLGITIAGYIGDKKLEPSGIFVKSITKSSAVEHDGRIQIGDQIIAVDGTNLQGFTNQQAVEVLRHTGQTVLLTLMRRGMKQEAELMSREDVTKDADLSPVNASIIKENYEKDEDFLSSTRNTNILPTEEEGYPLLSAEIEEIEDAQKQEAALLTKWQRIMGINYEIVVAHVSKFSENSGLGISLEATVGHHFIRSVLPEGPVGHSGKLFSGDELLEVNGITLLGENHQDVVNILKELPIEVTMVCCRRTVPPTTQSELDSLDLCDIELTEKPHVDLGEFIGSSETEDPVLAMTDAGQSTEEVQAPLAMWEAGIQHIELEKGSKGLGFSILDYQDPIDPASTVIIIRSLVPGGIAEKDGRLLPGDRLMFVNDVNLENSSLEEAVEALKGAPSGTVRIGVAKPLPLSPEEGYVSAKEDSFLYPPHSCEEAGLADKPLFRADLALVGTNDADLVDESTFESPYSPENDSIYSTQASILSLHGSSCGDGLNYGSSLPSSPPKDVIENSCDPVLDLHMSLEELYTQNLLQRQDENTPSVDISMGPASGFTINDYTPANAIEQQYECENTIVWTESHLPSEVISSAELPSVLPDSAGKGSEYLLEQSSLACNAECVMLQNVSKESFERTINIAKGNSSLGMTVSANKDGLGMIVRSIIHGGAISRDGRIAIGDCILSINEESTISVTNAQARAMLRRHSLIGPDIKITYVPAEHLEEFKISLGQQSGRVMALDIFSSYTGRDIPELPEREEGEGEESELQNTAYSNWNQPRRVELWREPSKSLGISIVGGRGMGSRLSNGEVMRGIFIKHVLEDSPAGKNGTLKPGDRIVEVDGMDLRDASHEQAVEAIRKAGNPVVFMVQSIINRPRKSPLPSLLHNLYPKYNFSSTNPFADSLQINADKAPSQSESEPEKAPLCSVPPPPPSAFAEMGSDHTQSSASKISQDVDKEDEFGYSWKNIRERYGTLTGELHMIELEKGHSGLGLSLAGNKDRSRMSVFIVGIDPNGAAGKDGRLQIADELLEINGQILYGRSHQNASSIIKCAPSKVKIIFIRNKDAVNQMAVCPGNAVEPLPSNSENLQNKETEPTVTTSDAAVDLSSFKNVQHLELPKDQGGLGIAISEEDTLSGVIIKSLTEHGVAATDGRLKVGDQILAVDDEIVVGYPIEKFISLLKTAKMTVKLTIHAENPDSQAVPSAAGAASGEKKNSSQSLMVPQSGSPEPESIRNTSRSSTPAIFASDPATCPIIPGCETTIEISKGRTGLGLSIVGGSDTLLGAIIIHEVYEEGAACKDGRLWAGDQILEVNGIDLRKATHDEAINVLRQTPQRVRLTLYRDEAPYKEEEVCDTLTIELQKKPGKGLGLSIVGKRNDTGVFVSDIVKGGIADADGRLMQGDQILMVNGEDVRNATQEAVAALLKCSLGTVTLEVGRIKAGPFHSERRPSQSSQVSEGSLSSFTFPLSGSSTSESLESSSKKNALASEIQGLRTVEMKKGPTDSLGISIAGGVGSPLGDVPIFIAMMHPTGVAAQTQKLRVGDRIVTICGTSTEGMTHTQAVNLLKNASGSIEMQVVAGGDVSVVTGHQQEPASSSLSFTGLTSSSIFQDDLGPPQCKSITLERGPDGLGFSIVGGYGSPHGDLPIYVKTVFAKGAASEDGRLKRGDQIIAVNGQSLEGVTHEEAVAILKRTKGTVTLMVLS
Text: as §1, §2, §3, §4, §5

[4] = target: T4, PDZ protein (GST-PDZ fusion) (Homo sapiens, UniProt Q6P0Q8)
T4 construct: made in house; host or cells: E. coli (DH5alpha, BL21 or JM109)
T4 sequence (Q6P0Q8 whole entry, the tested form may be a part): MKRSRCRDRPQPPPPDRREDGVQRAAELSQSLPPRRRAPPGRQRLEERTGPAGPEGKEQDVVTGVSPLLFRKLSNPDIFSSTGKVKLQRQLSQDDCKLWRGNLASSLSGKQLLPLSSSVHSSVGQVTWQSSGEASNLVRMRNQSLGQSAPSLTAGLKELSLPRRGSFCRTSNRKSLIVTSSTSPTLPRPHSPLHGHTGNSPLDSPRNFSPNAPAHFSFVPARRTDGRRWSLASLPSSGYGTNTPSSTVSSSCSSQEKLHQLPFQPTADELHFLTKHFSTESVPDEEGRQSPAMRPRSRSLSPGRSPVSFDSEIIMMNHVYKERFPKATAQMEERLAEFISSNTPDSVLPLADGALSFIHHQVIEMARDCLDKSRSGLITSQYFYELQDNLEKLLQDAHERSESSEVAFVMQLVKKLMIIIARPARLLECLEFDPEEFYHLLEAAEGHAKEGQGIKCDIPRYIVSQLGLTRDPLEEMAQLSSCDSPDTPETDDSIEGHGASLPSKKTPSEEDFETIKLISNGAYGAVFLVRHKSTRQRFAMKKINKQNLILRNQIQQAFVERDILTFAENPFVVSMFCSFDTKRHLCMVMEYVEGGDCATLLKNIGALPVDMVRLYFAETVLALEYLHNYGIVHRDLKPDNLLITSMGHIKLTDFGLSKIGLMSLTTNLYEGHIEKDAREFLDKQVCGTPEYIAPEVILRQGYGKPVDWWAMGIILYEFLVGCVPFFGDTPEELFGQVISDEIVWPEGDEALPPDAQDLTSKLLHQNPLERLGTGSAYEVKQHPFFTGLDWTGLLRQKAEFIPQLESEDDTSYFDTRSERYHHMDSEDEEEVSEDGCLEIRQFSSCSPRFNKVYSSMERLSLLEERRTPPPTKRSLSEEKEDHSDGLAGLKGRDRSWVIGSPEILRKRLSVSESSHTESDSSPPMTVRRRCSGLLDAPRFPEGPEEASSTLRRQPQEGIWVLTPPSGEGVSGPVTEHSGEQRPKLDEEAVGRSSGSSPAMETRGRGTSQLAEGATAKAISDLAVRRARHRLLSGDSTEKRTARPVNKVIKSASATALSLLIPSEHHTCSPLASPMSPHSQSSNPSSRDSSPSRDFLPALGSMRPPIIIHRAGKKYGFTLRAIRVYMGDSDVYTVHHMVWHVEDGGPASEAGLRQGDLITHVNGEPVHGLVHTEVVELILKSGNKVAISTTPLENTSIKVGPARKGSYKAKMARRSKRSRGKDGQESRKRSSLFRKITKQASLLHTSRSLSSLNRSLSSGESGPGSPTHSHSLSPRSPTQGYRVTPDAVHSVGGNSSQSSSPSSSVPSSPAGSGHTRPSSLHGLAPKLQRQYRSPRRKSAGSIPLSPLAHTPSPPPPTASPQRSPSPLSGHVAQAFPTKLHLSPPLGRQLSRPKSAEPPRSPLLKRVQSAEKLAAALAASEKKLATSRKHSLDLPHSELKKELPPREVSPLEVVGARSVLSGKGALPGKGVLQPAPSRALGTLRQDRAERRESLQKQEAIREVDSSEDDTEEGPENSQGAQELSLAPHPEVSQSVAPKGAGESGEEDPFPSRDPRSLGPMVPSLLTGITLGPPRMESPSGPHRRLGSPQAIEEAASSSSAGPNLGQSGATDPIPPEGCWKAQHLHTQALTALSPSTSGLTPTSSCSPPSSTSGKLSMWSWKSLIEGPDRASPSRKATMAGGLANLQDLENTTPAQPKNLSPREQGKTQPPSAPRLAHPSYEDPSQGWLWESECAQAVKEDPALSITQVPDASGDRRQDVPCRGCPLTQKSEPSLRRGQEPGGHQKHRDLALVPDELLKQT
Text: as §1, §2, §3, §4, §5

[5] = tested on: PDZ protein (GST-PDZ fusion)
Text: as §1, §2, §3, §4, §5

[6] = target: T5, PDZ protein (GST-PDZ fusion) (Homo sapiens, UniProt Q5TCQ9); conditions: PDZ KIAA1634, PDZ Domain 2
T5 construct: made in house; host or cells: E. coli (DH5alpha, BL21 or JM109)
T5 sequence (Q5TCQ9 1-1481): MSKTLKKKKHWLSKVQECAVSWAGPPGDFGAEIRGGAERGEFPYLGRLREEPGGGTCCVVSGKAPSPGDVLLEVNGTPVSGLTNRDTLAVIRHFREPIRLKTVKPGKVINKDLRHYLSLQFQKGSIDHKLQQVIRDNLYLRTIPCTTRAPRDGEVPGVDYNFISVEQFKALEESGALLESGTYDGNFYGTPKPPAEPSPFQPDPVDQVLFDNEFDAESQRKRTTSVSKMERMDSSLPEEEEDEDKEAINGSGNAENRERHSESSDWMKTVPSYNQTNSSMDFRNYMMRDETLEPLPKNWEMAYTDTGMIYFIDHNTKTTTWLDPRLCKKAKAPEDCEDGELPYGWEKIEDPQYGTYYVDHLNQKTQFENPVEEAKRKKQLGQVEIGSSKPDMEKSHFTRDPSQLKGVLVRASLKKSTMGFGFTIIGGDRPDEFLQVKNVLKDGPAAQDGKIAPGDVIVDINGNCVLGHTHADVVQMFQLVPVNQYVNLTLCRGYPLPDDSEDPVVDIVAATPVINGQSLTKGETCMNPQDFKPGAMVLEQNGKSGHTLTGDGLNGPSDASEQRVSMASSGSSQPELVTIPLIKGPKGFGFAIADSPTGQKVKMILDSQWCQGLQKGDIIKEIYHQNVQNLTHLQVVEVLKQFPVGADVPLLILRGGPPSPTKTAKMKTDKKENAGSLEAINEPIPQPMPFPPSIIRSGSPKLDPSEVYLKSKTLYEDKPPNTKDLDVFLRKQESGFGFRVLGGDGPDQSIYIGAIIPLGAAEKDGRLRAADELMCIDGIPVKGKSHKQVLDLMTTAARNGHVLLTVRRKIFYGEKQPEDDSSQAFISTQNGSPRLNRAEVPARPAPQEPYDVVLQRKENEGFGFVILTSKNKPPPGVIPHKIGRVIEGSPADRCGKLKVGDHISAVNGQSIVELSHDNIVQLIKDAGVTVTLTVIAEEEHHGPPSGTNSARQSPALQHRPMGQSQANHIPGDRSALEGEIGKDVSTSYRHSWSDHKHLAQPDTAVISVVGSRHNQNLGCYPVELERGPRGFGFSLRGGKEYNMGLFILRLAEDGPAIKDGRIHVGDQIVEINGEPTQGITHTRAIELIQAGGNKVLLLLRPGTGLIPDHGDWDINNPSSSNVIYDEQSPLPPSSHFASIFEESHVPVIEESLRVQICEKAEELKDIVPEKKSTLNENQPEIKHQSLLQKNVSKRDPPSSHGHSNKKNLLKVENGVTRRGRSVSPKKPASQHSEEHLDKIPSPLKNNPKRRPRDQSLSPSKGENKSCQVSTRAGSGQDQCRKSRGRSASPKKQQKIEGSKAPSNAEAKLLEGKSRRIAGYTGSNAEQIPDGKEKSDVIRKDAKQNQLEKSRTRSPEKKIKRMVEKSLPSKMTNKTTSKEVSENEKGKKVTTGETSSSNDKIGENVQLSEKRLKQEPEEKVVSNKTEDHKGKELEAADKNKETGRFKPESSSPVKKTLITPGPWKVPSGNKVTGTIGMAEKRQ
Text: as §1, §2, §3, §4, §5

[7] = target: T6, PDZ protein (GST-PDZ fusion) (Homo sapiens, UniProt Q12923); conditions: PDZ PTPL-1, PDZ Domain 2
T6 construct: made in house; host or cells: E. coli (DH5alpha, BL21 or JM109)
Text: as §1, §2, §3, §4, §5

[8] = target: T7, PDZ protein (GST-PDZ fusion) (Homo sapiens, UniProt Q14160); conditions: PDZ KIAA0147, PDZ Domain 1
T7 construct: made in house; host or cells: E. coli (DH5alpha, BL21 or JM109)
Text: as §1, §2, §3, §4, §5

[9] = target: T8, PDZ protein (GST-PDZ fusion) (Homo sapiens, UniProt O15018); conditions: PDZ AIPC, PDZ Domain 1
T8 construct: made in house; host or cells: E. coli (DH5alpha, BL21 or JM109)
Text: as §1, §2, §3, §4, §5

Classification [1]: 1 (A450 nm 0-1)
Classification ([2]; PDZ Mint 1, PDZ Domain 2): 1 (A450 nm 0-1)
Sequence: SYPTPRPYPKPAPSSGKDYV (Biotin-SYPTPRPYPKPAPSSGKDYV) [claudin 1]

Sequence: ENLELPVNPSSVVSERISSV (Biotin-ENLELPVNPSSVVSERISSV) [serotonin receptor 5-HT-2C]
Classification [1]: 1 (A450 nm 0-1)
Classification ([3]; PDZ MUPP-1, PDZ Domain 10): 1 (A450 nm 0-1)

Classification ([3]; PDZ MUPP-1, PDZ Domain 3): 1 (A450 nm 0-1)
Classification ([3]; PDZ MUPP-1, PDZ Domain 7): 1 (A450 nm 0-1)
Classification ([3]; PDZ MUPP-1, PDZ Domain 9): 1 (A450 nm 0-1)
Classification ([4]; PDZ KIAA0807(S), PDZ Domain 1): 1 (A450 nm 0-1)
Sequence: TALRIKKTLAKMVESQDVKI (Biotin-TALRIKKTLAKMVESQDVKI) [bone morphogenetic protein receptor]

Classification ([4]; PDZ KIAA0807(S), PDZ Domain 1): 1 (A450 nm 0-1)
Sequence: IVFIHSFLSAKVTRLGLLA (Biotin-IVFIIHSFLSAKVTRLGLLA) [alpha-1-syntrophin]

Classification ([4]; PDZ KIAA807): 1 (A450 nm 0-1)
Classification ([4]; PDZ KIAA0807(S), PDZ Domain 1): 1 (A450 nm 0-1)
Sequence: RDSFHRSSFRKAETQLSQGS (Biotin-RDSFHRSSFRKAETQLSQGS) [Clasp-5]
Classification ([5]; PDZ BAI-1, PDZ Domain 2): 1 (A450 nm 0-1)
Classification ([5]; PDZ SHANK, PDZ Domain 1): 1 (A450 nm 0-1)

Classification ([2]; PDZ Mint 1, PDZ Domain 1, 2): 1 (A450 nm 0-1)
Sequence: LGYSIPSRSGASGLDKRDYV (Biotin-LGYSIPSRSGASGLDKRDYV) [claudin 9]

Classification [6]: 2 (A450 nm 1-2)
Classification [7]: 4 (A450 nm 3-4)
Classification [8]: 1 (A450 nm 0-1)
Sequence: PYQSQGFSTEEDEDEQVSAV (Biotin-PYQSQGFSTEEDEDEQVSAV) [RA-GEF (ras/rap1A-assoc-GEF)]

Classification ([2]; PDZ Mint 1, PDZ Domain 1, 2): 1 (A450 nm 0-1)
Classification ([4]; PDZ KIAA0807(S), PDZ Domain 1): 1 (A450 nm 0-1)
Classification ([4]; PDZ KIAA807, PDZ Domain not given): 1 (A450 nm 0-1)
Classification [9]: 1 (A450 nm 0-1)
Sequence: VISKATPALPTVSISSSAEV (Biotin-VISKATPALPTVSISSSAEV) [Clasp-1]
